Assay results: US5114710A, “M-CSF as a therapeutic agent for thrombocytopenia” (Green Cross Corporation, priority 1988, dated 1992)
“Also recorded” adds a separate entry of the source.

Experiments:
mouse marrow cells = experiment: Colony stimulating activity: colony formation of mouse marrow cells on single-layer soft agar gel; type: cell-based
Method: (§1) The colony stimulating activity of the CSF according to the invention was determined by the method involving colony formation of mouse marrow cells on a single-layer soft agar gel. Thus, the CSF sample was admixed with 1 ml of McCoy's 5A medium (GIBCO) containing 0.3% agar, 20% fetal calf serum (FCS) and 1×10^5 mouse marrow cells. Incubation was carried out at 37° C. for 7 days under a stream of 7.5% CO2 -containing air. Thereafter, cell aggregates consisting of 50 or more cells were judged as colonies and counted. The colony stimulating activity was expressed in units. One unit was defined as the quantity of CSF required for the formation of one colony. The specific activity was expressed in terms of the number of colonies (units) formed per milligram of the CSF protein. […] The colonies formed were stained with hematoxylin-eosin for morphological classification.

[1] = system: patients with thrombocytopenia; experiment: Administration to patients with thrombocytopenia (summary of clinical test examples 1 and 2); type: in vivo, human; conditions: administration in the course of chemotherapy
Description: A malignant tumor patient was subjected to chemotherapy (first chemotherapy), then merely observed for a period (control phase) and, after a second chemotherapy, administered with 8×10^6 units of a glycoprotein preparation comprising the prepared in Reference Example 1 as active ingredient by intravenous drip for 7 consecutive days (preparation administration phase). Blood granulocytes and platelets were counted at timed intervals. The minimum platelet count and the number of days required for the platelet level to regain a level of at least 10^5 /mm^3 in the control phase and in the preparation administration phase are comparatively shown in Table 4.
Ten malignant tumor patients were subjected to a first chemotherapy, then observed without any treatment for a period (control phase) and, after a second chemotherapy, administered with 8×10^6 units of a glycoprotein preparation comprising the CSF prepared in Reference Example 1 as active ingredient by intravenous drip for 7 consecutive days (preparation administration phase). Blood platelets were counted at timed intervals. The minimum platelet count and the number of days required for the platelet count to regain a level of at least 10^5 /mm^3 in the control phase and in the preparation administration phase are comparatively shown in Table 5.

[2] = Isoelectric point by polyacrylamide gel isoelectric focusing and sucrose density gradient isoelectric focusing; type: physicochemical
Description: The isoelectric point (pI) as determined by the polyacrylamide gel isoelectric focusing and sucrose density gradient isoelectric focusing techniques is 3.1-3.7.

[3] = Thermal stability: colony stimulating activity after heating; type: physicochemical; conditions: 1 μg/ml, dilute buffer pH 7.0, 60±0.5° C., 60 minutes
Method: The CSF was dissolved in a dilute buffer (pH 7.0) to a concentration of 1 μg/ml, and the solution was heated at 60±0.5° C. for 60 minutes and then assayed for colony stimulating activity (to be mentioned later herein).
as §1

B1: CSF: human monocyte-macrophage colony stimulating factor, glycoprotein homodimer of two identical subunits (35,000-45,000 daltons each), purified from human urine (protein, UniProt P09603 33-554, looked up)
Macrophage colony-stimulating …: EEVSEYCSHMIGSGHLQSLQRLIDSQMETSCQITFEFVDQEQLKDPVCYLKKAFLLVQDIMEDTMRFRDNTPNAIAIVQLQELSLRLKSCFTKDYEEHDKACVRTFYETPLQLLEKVKNVFNETKNLLDKDWNIFSKNCNNSFAECSSQDVVTKPDCNCLYPKAIPSSDPASVSPHQPLAPSMAPVAGLTWEDSEGTEGSSLLPGEQPLHTVDPGSAKQRPPRSTCQSFEPPETPVVKDSTIGGSPQPRPSVGAFNPGMEDILDSAMGTNWVPEEASGEASEIPVPQGTELSPSRPGGGSMQTEPARPSNFLSASSPLPASAKGQQPADVTGTALPRVGPVRPTGQDWNHTPQKTDHPSALLRDPPEPGSPRISSLRPQGLSNPSTLSAQPQLSRSHSSGSVLPLGELEGRRSTRDRRSPAEPEGGPASEGAARPLPRFNSVPLTDTGHERQSEGSFSPQLQESVFHLLVPSVILVLLAVGGLLFYRWRRRSHQEPQRADSPLEQPEGSPLTQDDRQVELPV
modifications: urinary homodimer
notes: human monocyte-macrophage colony stimulating factor, glycoprotein homodimer of two identical subunits (35,000-45,000 daltons each), purified from human urine
- specific activity (mouse marrow cells; Reference Example 2, CSF purified with antibody-bound carrier): 5.2×10^7 units/mg
- specific activity (mouse marrow cells; Reference Example 2, CSF-containing solution before antibody-bound carrier treatment): 2 ×10^5 units/mg
- monocyte-macrophage colonies among the colonies formed (mouse marrow cells; hematoxylin-eosin staining, morphological classification): at least 95%
- specific activity (mouse marrow cells; purification step (1) DEAE-cellulose): 1.6 × 10^5 units/mg
- specific activity (mouse marrow cells; purification step (2) Sephacryl S-300): 5.7 × 10^5 units/mg
- specific activity (mouse marrow cells; purification step (3) Phenyl-Sepharose): 8.8 × 10^6 units/mg
- specific activity (mouse marrow cells; purification step (4) TSKG-3,000 SW): 2.0 × 10^7 units/mg
- specific activity (mouse marrow cells; purification step (5) Hi-Pore RP-304 (final)): 1.4 × 10^8 units/mg
- specific activity (colony stimulating activity) (mouse marrow cells; purified CSF, mouse marrow cells, 7 days at 37° C., one unit = one colony): 1.4×10^8 units per milligram of protein
- restoration of a normal platelet level [1]: rapid restoration of a normal platelet level
- isoelectric point (pI) [2]: 3.1-3.7
- thermal stability (colony stimulating activity after heating) [3]: The biological activity is not lost; also recorded: Almost no activity decrease was observed
